The DeepSol protein solubility set

Assay: soluble on expression in E. coli; label from the status in PepcDB or PDB records

| Sequence | soluble on expression in E. coli |
| --- | --- |
| MNFVTLTSDEFNAFTTKHFSHYTQSAIHYNHRVDLKGDVHLVGVKDDNGQVIAGCLLTEARTLKFFKYFYTHRGPVMDYTNQSLVAFFFKALTSYLKKHNCLYVLVDPYLIENLRNADGEIVKSYDNRAFVRTMDKLGYKHQGFPVGYDSMSQIRWLSVLDLKDKTEDQLLKEMDYQTRRNIKKTYDIGVKTKTLTIDETQTFFDLFHMAEEKHGFKFRELPYFEEMQKLYDDHAMLKLAYIDLNEYLKTLQLKQQQLTAELSGVEEALEESPNSKKNKTKRTQLEQQLNSNKRKIDNTIEQIEQDGAVLNLASALFIYNEHEVYYLSSGSNPKYNAYMGAYHLQWEMIKFAKAHHIDRYNFYGITGDFSESSEDYGVQQFKKGFNAHVEEYIGDFIKPIKPLLYKVQTYLNHKRR | not soluble |
| SSNEHGPVKRSSQSTLERSEQQIRAASSLEELLRITHSEDWKLWRCRLRLKSFTSMDSRSASHRSTRFAATFYDIETLKVIDEEWQRTQCSPRETCVEVASELGKSTNTFFKPPCVNVFRCGGCCNEESLICMNTSTSYISKQLFEISVPLTSVPELVPVKVANHTGCKCLPTAPRHPYSIIRRSIQIPEEDRCSHSKKLCPIDMLWDSNKCKCVLQEENPLAGTEDHSHLQEPALCGPHMMFDEDRCECVCKTPCPKDLIQHPKNCSCFECKESLETCCQKHKLFHPDTCSCEDRCPFHTRPCASGKTACAKHCRFPKEKRAAQGPHSRKNP | soluble |
| MGSDKIHHHHHHMTEKTTAELENLRGLIDGVDSQLLSLLRKRLDLVAQVGTVKHAAGLPIYAPAREAAMLGKRRAEAEAMGVSPQLIEDILRRLMRESYMSEKDVGFKQVNPELGHIVIIGGQGQLGRLFAQMFALSGYEVRLLDKDDWDHADELFDGAGLVLVTVPIATTCSLIRERLDHLPEHCILADLTSVKGAPLKAMLETHKGPVVGLHPMFGPDVGSLAKQVVVVCHGRAPEKYQWLMEQIGIWGARLVEADAGRHDKAMQLVQAMRHFSSFVYGLNLCREQADIDTLLEFSSPIYRLELAMVGRLFAQSGELYADIIFAQEESLTAISDFIDNYRDALELLKTGDRAGFIARFNEVSNWFGNYSQQFLTESRAMLQSVNDMRSV | not soluble |
| MGSDKIHHHHHHMILLSFDIEEFDVPKEHQVDISMEEQIKVSVEGTTRILDCLERNQVKATFFCTANFALHAPDIIKRIQEGGHEIASHGFYHWTFEVEDLKRSKDQLEEITGTKVYGYRQARMMPVSEKAVYEAGYIYNSSLNPTFIPGRYMRLSTPRTPFIKDRVMQMPASVTPLLRFPLFWLSCHNLPASLYRWLCKYTHRHDGYFVTYFHPWEFYPLNEHPEWKLPFIIRNHAGEGMEKRLDAFILYFRKKNVSFGRFIDYIKLNKDIMK | not soluble |
| MKTIWTGAIGFGLVNIPVKLFSATHESRLDLDMLDKKDHSNIKFQRVNAKTGKEVAWDNIVKGYKIEDDYVILDEKDFEKANAKKTKTIEILQFVQEDEIDSVYFETPYYIQPDKSGTRAYALLREALIKSKKVAVANYVLRNKEALAILKPVGNVIVLNKIRFQEEILDADALDLPAKSAIKEGEMKMALSLIDQLTETFDISKYKDTYTSELLKLIKAKAKGTVVKTKSAASKPTATKDLMAQLKASLQPTKRAAAR | not soluble |
| MSLKFVGLVGSNYDQSYNRKLLEFIRRYFKLKFELEVLEIDEVPMFNQDEKWDESFQLRYLYNKITRADGVIIATPEHNHTISASLKSVLEWLSYEVHPFENKPVMIVGASYYDQGTSRAQVHLRKILDAPGVNAYTLPGNEFLLGKAKEAFDNNGNITNEGTVKFLETCLDNFVKYVGVVSKLKKPKPIESEDLDCGKPIATTITEVDPDDPEWVEKVAAFTGAVSGDTYVKLDHGILTVNQIDMFLKAMPFELTYADDNNQFLYYNNAHQDPDTMFAKRVPPQSGSRMSTVHGSLPPARMKNVEWVIGTLRNGNQEYVRTIVPGSPAGVINTHNYQAMYYPDGSYAGINEIVFNFQPWLDWYLKETGQRLVGGSGPFAPAAGGHGDADATSGASDSGDAGGHGGDADATAGASYEGHHHHHH | soluble |
| MSLSTIDLHVHSNYSDGIHPPADLVKMAAERGLVAIAIADHDTVDGIDEALIAGARLGVEVVPAVELSAEHGRYRDMHILGYHLDHRDPRLVDMLAEFRINREIRGRAIVDKINQRLADGRKPLLSYDEVLNLAEGAVGRPHIGRMLIERGYARNMEDAFRRYLIPCNVPKRYIPAGDAITEIRRAGGVAVLAHPITVSDDRQVLRGIVSELVALGLDGIEVFNNMCYKDDMLFLEFLCRESGLLMTGGSDFHGFEDDVEIGSGRGGLAVSHRLAEAVKNLAESRRITPPGSRTEGHHHHHH | soluble |
| MKERESVQDQSDPSETDSEELLQLDGKSISEWVSEIDAISKEVEAELVSRDIGCHLVQVLEAVNTVLFDLRGFKRTSITLDPENSYLHSVLNCRCSTAFLISVIYIEVCKRLNVPIVGSPVGEDFLIWPKTEYPEELFKATSGQSLFSIVNGRCVDDPGSMASDLTAKSLQDLDMATNRDIIGIALANLIRLHWRRASKSSHGLMLTSPLSQLNNISSSNFPLLRPQDLRLAIAAAERLLILQPHNWALRRDLGMMLYYDRQYGEAVQELSICMAFAPPEEEAVLEPFVERLHLLRLISSLKPLGSDRLTVP | soluble |
| MSLNLKKAELHVHLEGTISPELAKKLAKRNQLTLPNGLIAPDEKSYLSRDFLDFLKVYDTLASVIKNPQDYYDITFDYLKSNAQEHAIYIEMMYSPDHAEQSSGIPSKEHLAAIQQAIDDAKSQFDIVGRIIITAVRHFGVEACERVAKQASIDKFPCVTGFGLGGDEAKFPPQLFTKAYQIAADSGLECTVHAGEFDSAKGMEEAMKTLPIKRIGHGVRVIDSPDIMAMVKDQGIALEVCPTSNIFLGLFKDMNSHPFPKLYEAGIKVSINSDDPPFMSTTLAQEYKRVQKAYGYNNDTMNNITRMAIEAAFVDEKTRKELLTKLEQEGHHHHHH | soluble |
| MTEEKPKIGRPPVLSCAERTCQILRAAEQVFVCHGYSGTTMDRIACAAGMSKRTLYQHFPDKLAVLQGILRAYDAGPLMESLTDPDPPGSAREILHRSLVEILRFLLCPAQVALTRLAVSEATAAPEVARLFYDNAMGGLSAAFTRRIAGLAAQGRIRCSDADWLGSSLVGCALNRQLLRRLTHPEAGPPDVAELERRVSALLDLVGPSLGFAD | not soluble |
| MGVALAAMCLMSAQAQRRNEIQVPNLNGYTTLKCDFHMHSVFSDGLVWPTVRVDEAYREGLDAISLTEHIEYRPHKKDIIADHNRSYELSQKQAKKLGILLIRGSEITRSMPPGHFNAIFLNDSNPLEQKAYKDAFNEAKKQGAFIFWNHPGWARQQPDSTLWWPEHTQLYNDGCMHGIEVANGGLFMPEAIQWCLDKNLTMIGTSDIHQPIQTDYDFSKGEHRTMTFVFAKERSPEGIREALDNRRTAVYYRELVIGREEILRPFFEKCVDIKEVKRTEKEVTFSVMNATDLVLKLKKTAHDPSLVYFREMTLKPHTQHTISVKFDNGIKGGDCNFEVTNFIVAPDKGLDYTIKL | not soluble |
| LVQGPSLIGIHANEREDIETKKFVNWYLNTKVQWEENSIKTPAEYVADKASYLLPFKNRLNNTNSYNEFVKTAVSQFADKNVTKFAEPADFLSNKVRD | not soluble |
| AIPAPTDLKFTQVTPTSLSAQWTPPNVQLTGYRVRVTPKEKTGPMKEINLAPDSSSVVVSGLMVATKYEVSVYALKDTLTSRPAQGVVTTLENVSPPRRARVTDATETTITISWRTKTETITGFQVDAVPANGQTPIQRTIKPDVRSYTITGLQPGTDYKIYLYTLNDNARSSPVVIDASTAIDAPSNLRFLATTPNSLLVSWQPPRARITGYIIKYEKPGSPPREVVPRPRPGVTEATITGLEPGTEYTIYVIALKNNQKSEPLIGRKKT | soluble |
| MEKIVYEQLKETLYYEKLPNGLDVYILPKQGFNKTFATSTTKYGSVDNTFVPLGKEEMIRVPDGIAHFLEHKLFEKEDHDAFQLFSKQGASANAFTSFTRTAYLFSCTSNVEQNLNTLLNFVQEPYFSEKTVEKEKGIIGQEIQMYQDNPDWRLYFGLIDSLFVKHPIKIDIAGTIESISKITKDLLYECYETFYHPSNMLMFVVGAIDPEKTMDLVHENQAKKDYKNQPEIVRSFEEEPDEVNEKKKIISMPVQTPKCLVGIKATNLKEKGEALLKQEIALTLLLDYLFGKSSVHYESLYNEGLIDDTFSYDYTEENNFGFAMVGGDTKQPDELEERLKSILLNTNYNQLDEAALERVKKKKIGGFLRSLNSPEYIANQFTRYAFNESSLFDALTVLESLTVQDLQEVAQLLLSEEKMSVCQVLPKK | not soluble |
| MTDRYSFSLTTFSPSGKLGQIDYALTAVKQGVTSLGIKATNGVVIATEKKSSSPLAMSETLSKVSLLTPDIGAVYSGMGPDYRVLVDKSRKVAHTSYKRIYGEYPPTKLLVSEVAKIMQEATQSGGVRPFGVSLLIAGHDEFNGFSLYQVDPSGSYFPWKATAIGKGSVAAKTFLEKRWNDELELEDAIHIALLTLKESVEGEFNGDTIELAIIGDENPDLLGYTGIPTDKGPRFRKLTSQEINDRLEAL | soluble |
| MNYTEHYHDWLRDAHAMEKQAESMLESMASRIENYPDIKARIEQHISETKHQITMLEEVLDRNGISRSVLKDSMSKMAAMGQSIGGMFPSDEIVKGSISGYVFEQFEIACYTSLLAAAKKAGDTASIPTIEAILKEEMQMADWLIKHIPQTTEQFLLRSEADGVEAKK | not soluble |
| DKVQNAVMQAMVRGSLNKDLAAQIKDLGKTTEKRAMFIARDQSSKLNAALTQARHEEVGIKKYMWSASLDERVRESHAEKDGQIFEYANPPADTDHPGHDFNCRCVQI | not soluble |
| MRGIVTIDGPSASGKSSVARRVAAALGVPYLSSGLLYRAAAFLALRAGVDPGDEEGLLALLEGLGVRLLAQAEGNRVLADGEDLTSFLHTPEVDRVVSAVARLPGVRAWVNRRLKEVPPPFVAEGRDMGTAVFPEAAHKFYLTASPEVRAWRRARERPQAYEEVLRDLLRRDERDKAQSAPAPDALVLDTGGMTLDEVVAWVLAHIRR | soluble |
| MLTERQLLIFRAIIDHFTWTIQPVGSKNLLKEKSLPYSSATIRNEMGVLEEYGFIEKTHSSSGRVPSEKGYRFYVDYLLQPKKLDKSDRQMIRSFFSENYYEMEGLIQNSALMLSDLTNYTSILLGPEATKNHLSGFRFVPINNFQAMLILITDQGHVDNHLVTIPEGTTLSDIERMVNILNERLVGLSLDDLKVQIPMEVKELLGKHVRNYESFMHVFSDSFAQASQQKVYFGGKTNILNQPEFHDINKVREMLHLMEEEQDVYELFRDIPDGLQVKIGRENNNSLMEDCSIITATYNIAGERVGGIVLLGPTRMEYSRMMGLVDVMSRDLTDVLTKLYRDNQN | not soluble |
| MIDISVVIPLLNEAESIPELFAWIRRVMNEHGYSYEVIFVDDGSTDGSWSVIERLQAEHPEVKGIKFRRNYGKSAGLQCGFARTQGQVVITMDADLQDSPDEIPELYRMVTEGGYDLVSGWKRKRYDPLFSKNLPSKLFNATARKLSGIKLHDFNCGLKAYRHEVVENIELYNDMHRYIPYLAKSAGFGRIGEKVVQHQARKYGSSKFGISRFFNGYLDLLTLWFISKFGRKPMH | not soluble |
| MGSDKIHHHHHHMLTSRKFFPSLSSLRALEALDRLGSASAVAEELALTQSAVSRQLQTLEGQMGVELIRRDRKRLSLTPAAQDYVTEIREALNRIAQASLRLQVAPAGGTVNLAILPTFGMRWLMPRLPEFSRLHPDITINMTTRLRPFNFASEPFDAALHFGEPDWPGTDRLLLRAERVLPVCAPGLLPHGAPKSPADLLRLPLLHIQTRPRAWQDWFAQMGVTCPETLPGTLYDQFATIGQAALHGLGVALLPNYVVEQDLATGRLVAAYPDAVETLGAYYLVWPRARGNDPSLRAFRHWLAAQAEPEEGLPR | not soluble |
